From article PMC4194032 (Cell, 2014)

T1: Snf7-VN (budding yeast, UniProt P39929 1-240)
T1 sequence (looked up): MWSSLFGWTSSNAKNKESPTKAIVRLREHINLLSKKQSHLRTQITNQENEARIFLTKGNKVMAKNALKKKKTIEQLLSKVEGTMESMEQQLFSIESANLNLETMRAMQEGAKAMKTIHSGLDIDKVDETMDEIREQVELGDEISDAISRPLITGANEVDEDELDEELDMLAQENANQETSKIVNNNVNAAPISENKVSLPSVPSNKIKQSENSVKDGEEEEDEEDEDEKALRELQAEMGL

T2: Heh2-VN (budding yeast, UniProt Q03281 1-663)
T2 sequence (looked up): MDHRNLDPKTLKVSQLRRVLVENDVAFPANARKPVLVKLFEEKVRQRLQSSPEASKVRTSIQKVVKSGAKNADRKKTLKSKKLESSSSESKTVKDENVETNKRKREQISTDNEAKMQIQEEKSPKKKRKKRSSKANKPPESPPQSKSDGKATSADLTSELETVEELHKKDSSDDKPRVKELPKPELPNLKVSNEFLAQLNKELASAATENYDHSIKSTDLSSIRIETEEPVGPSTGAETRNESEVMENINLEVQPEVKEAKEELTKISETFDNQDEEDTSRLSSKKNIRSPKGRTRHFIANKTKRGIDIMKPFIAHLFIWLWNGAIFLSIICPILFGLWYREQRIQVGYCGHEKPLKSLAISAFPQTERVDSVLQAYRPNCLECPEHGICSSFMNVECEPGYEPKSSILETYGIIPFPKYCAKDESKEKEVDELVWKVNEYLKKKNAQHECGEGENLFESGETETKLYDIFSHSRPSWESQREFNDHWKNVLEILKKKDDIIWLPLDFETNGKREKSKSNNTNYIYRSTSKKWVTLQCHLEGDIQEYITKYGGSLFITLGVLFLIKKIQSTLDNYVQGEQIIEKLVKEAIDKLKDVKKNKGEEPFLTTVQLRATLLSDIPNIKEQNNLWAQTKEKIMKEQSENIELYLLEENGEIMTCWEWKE


Tests used:
Test in all cases: split reporter
Heh1-VN (budding yeast) = Heh1-VN (budding yeast) (UniProt Q03707)
Heh1-VN (budding yeast), sequence (Q03707 whole entry): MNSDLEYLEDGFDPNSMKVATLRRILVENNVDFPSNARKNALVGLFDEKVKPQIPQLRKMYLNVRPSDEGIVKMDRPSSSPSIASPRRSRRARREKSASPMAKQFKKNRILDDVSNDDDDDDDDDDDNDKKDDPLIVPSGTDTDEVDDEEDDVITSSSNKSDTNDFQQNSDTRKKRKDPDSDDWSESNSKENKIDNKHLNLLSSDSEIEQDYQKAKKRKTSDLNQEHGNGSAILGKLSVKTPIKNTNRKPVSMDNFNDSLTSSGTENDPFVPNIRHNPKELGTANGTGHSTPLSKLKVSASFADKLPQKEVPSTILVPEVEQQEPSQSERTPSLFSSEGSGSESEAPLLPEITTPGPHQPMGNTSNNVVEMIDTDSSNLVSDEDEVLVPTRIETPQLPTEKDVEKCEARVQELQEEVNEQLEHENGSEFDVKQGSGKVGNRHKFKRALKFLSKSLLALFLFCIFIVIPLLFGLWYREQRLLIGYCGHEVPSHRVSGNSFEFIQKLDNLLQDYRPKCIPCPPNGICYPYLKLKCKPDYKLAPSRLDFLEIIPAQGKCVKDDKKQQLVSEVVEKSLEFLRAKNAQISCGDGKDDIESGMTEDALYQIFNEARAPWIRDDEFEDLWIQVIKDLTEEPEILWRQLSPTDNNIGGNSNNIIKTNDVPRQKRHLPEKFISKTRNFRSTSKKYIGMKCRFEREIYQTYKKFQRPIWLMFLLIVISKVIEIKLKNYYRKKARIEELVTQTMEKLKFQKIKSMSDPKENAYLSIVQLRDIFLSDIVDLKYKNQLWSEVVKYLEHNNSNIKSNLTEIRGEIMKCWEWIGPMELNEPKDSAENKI

Snf7-VN = target: T1, Snf7-VN
Heh2-VN = target: T2, Heh2-VN

percent of cells with Venus fluorescence (Snf7-VN)	Molecule	further results
–	Snf7-VC (from UniProt P39929 1-240) (natural protein)	percent of cells with Venus fluorescence (Heh1-VN (budding yeast)): 45 % of cells
~90 % of cells	Bro1-VC (natural protein, budding yeast, UniProt P48582 1-844, looked up) MKPYLFDLKLKDTEKLDWKKGLSSYLKKSYGSSQWRTFYDEKATSELDHLRNNANGELAPSSLSEQNLKYYSFLEHLYFRLGSKGSRLKMDFTWYDAEYSSAQKGLKYTQHTLAFEKSCTLFNIAVIFTQIARENINEDYKNSIANLTKAFSCFEYLSENFLNSPSVDLQSENTRFLANICHAEAQELFVLKLLNDQISSKQYTLISKLSRATCNLFQKCHDFMKEIDDDVAIYGEPKWKTTVTCKLHFYKSLSAYYHGLHLEEENRVGEAIAFLDFSMQQLISSLPFKTWLVEFIDFDGFKETLEKKQKELIKDNDFIYHESVPAVVQVDSIKALDAIKSPTWEKILEPYMQDVANKCDSLYRGIIPLDVYEKESIYSEEKATLLRKQVEETETANLEYSSFIEFTNLPRLLSDLEKQFSDGNIFSNTDTQGQLMRDQIQTWCKFIQTNEFRDIEEQMNKIVFKRKQILEILSALPNDQKENVTKLKSSLVAASNSDEKLFACVKPHIVEINLLNDNGKIWKKFDEFNRNTPPQPSLLDIDDTKNDKILELLKQVKGHAEDLRTLKEERSRNLSELRDEINNDDITKLLIINKGKSDVELKDLFEVELEKFEPLSTRIEATIYKQSSMIDDIKAKLDEIFHLSNFKDKSSGEEKFLEDRKNFFDKLQEAVKSFSIFASDLPKGIEFYDSLFNMSRDLAERVRVAKQTEDSTANSPAPPLPPLDSKASVVGGPPLLPQKSAAFQSLSRQGLNLGDQFQNLKISAGSDLPQGPGIPPRTYEASPYAATPTMAAPPVPPKQSQEDMYDLRRRKAVENEERELQENPTSFYNRPSVFDENMYSKYSS	–
–	Snf7-VC (natural protein, budding yeast, UniProt P39929 1-240, looked up) MWSSLFGWTSSNAKNKESPTKAIVRLREHINLLSKKQSHLRTQITNQENEARIFLTKGNKVMAKNALKKKKTIEQLLSKVEGTMESMEQQLFSIESANLNLETMRAMQEGAKAMKTIHSGLDIDKVDETMDEIREQVELGDEISDAISRPLITGANEVDEDELDEELDMLAQENANQETSKIVNNNVNAAPISENKVSLPSVPSNKIKQSENSVKDGEEEEDEEDEDEKALRELQAEMGL	percent of cells with Venus fluorescence (Heh2-VN): ~18 % of cells
~90 % of cells	Vps20-VC (natural protein, budding yeast, UniProt Q04272 1-221, looked up) MGQKSSKVHITKTDRAILEVKRSKDEIHKFTRRTDNLILVEKSQLKDLIRKNPENYKSNMKVRFLLKRIHYQEHLLQQASDQLINLENMVSTLEFKMVEKQFINGLKNGNEILKKLNKEFSNVDELMDDVQDQIAYQNEINETLSRSLVGTSNYEDDLDKELDALESELNPEKMNNAKVANMPSTEGLPSLPQGEQTEQKEREEFATEERSDTKEPLALLS	–
